Assay results from patent publication US20200247894A1 (Regeneron, published 2020).

T1: Human IL2Rγ extracellular domain expressed with a C-terminal myc-myc-hexahistidine tag (human)
T1 construct: also called hIL-2Rg-MMH; hIL-2RG-MMH
T1 chain: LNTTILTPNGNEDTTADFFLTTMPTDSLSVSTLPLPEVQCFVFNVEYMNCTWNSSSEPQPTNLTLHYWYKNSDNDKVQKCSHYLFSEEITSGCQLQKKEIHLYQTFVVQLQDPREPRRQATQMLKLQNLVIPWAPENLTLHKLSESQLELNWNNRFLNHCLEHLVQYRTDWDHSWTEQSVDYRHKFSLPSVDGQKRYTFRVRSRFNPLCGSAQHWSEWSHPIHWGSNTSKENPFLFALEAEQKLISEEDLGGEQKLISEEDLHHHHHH

T2: Macaca fascicularis IL2Rγ extracellular domain expressed with a C-terminal myc-myc-hexahistidine tag (Macaca fascicularis)
T2 construct: also called mfIL-2Rg-MMH; mfIL-2RG-MMH
T2 chain: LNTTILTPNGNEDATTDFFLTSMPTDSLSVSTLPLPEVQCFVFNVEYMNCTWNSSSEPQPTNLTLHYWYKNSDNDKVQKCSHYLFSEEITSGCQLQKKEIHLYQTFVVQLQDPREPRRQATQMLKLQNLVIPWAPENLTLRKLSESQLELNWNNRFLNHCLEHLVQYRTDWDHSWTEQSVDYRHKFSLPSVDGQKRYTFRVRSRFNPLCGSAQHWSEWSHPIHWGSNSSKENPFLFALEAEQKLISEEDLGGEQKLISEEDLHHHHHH


Experiments:
[1] = biological target: T1, Human IL2Rγ extracellular domain …; assay: SPR Biacore 4000, mAb captured by anti-hFc, HBS-ET, 25C
Procedure: (§1) Equilibrium dissociation constants (KD values) for IL-2Rγ binding to purified anti-IL2Rγ monoclonal antibodies were determined using a Biacore 4000 instrument equipped with a real-time surface plasmon resonance biosensor. All binding studies were performed in 10 mM HEPES, 150 mM NaCl, 3 mM EDTA, and 0.05% v/v Surfactant Tween-20, pH 7.4 (HBS-ET) running buffer at 25° C. and 37° C. The Biacore sensor surface was first derivatized by amine coupling with a monoclonal mouse anti-human Fc antibody (GE, # BR-1008-39) to capture anti-IL2Rγ monoclonal antibodies.
(§2) The dissociation of monoclonal antibody bound IL2Rγ reagents were monitored for 8-10 minutes in HBS-ET running buffer. Kinetic association (kₐ) and dissociation (kd) rate constants were determined by fitting the real-time sensorgrams to a 1:1 binding model using Scrubber 2.0c curve fitting software. Binding dissociation equilibrium constants (KD) and dissociative half-lives (t_{1/2}) were calculated from the kinetic rate constants as: […]

[2] = biological target: T2, Macaca fascicularis IL2Rγ extracellular …; assay: as above
Procedure: as §1, §2

[3] = biological target: T1, Human IL2Rγ extracellular domain …; assay: SPR Biacore 4000, mAb captured by anti-hFc, HBS-ET, 37C
Procedure: as §1, §2

[4] = biological target: T2, Macaca fascicularis IL2Rγ extracellular …; assay: SPR Biacore 4000, mAb captured by anti-hFc, 37C, dissociation in PBS-T pH 7.4
Procedure: (§3) The dissociation rate constant (kd) for binding of IL-2Rγ reagents to purified anti-IL2Rγ monoclonal antibodies was determined using a real-time surface plasmon resonance based Biacore 4000 biosensor platform. […] The CM5 Biacore sensor surface derivatized by amine coupling with monoclonal mouse anti-human Fc antibody (GE, Catalog # BR-1008-39) was used to capture anti-IL2Rγ monoclonal antibodies expressed with human IgG4 Fc. All the IL2Rγ reagents were expressed with a C-terminal myc-myc-hexahistidine tag (subsequently referred to with a -MMH suffix). […] The dissociation of bound IL-2Rg-MMH was performed in PBS-T-pH7.4 or PBS-T-pH6.0 running buffers for 6 minutes.
(§4) Dissociation rate constants (kd) in two running buffers were determined by fitting the real-time binding sensorgrams to a 1:1 binding model using Scrubber 2.0c curve-fitting software. Values of dissociation rate for […] mAb binding to hIL-2RG-MMH and mfIL-2RG-MMH at 25° C. and 37° C. in PBS-T-pH7.4 and PBS-T-pH6.0 is shown in Table 2-1 through Table 2-8.

[5] = biological target: T2, Macaca fascicularis IL2Rγ extracellular …; assay: SPR Biacore 4000, mAb captured by anti-hFc, 37C, dissociation in PBS-T pH 6.0
Procedure: as §3, §4

Binder	100 nM Ag Bound [1] [RU]	Kd [1] [nM]	koff [1] [s⁻¹]	kon [1] [M⁻¹ s⁻¹]	t1/2 [1] [min]	100 nM Ag Bound [2] [RU]	Kd [2] [nM]	koff [2] [s⁻¹]	kon [2] [M⁻¹ s⁻¹]	t1/2 [2] [min]	100 nM Ag Bound [3] [RU]	Kd [3] [nM]	koff [3] [s⁻¹]	kon [3] [M⁻¹ s⁻¹]	t1/2 [3] [min]	100 nM Ag Bound (RU) [4] [RU]	koff [4] [s⁻¹]	t1/2 [4] [min]	100 nM Ag Bound (RU) [5] [RU]	koff [5] [s⁻¹]	further results
H4H12886P (antibody, human IgG4 S228P, kappa, V domains shown, anti-IL2Rγ monoclonal antibody expressed with human IgG4 Fc) VH: EVQLVESGGGLVKPGGSLRLSCAASGFTFSTAWMSWVRQSPGRGLEWVGRMKSKTDGGTTFYAAPVKGRFTISRDDSKNTLYLQMNSLKTEDTAVYYCTTGLVPAFYKYYGVDVWGQGTTVTVSS VL: DIQMTQSPSSLSASVGDRITITCQASQDITNYLNWYQQKPGKAPNLLIYDASNLVTGVPSRFSGSGSGTDFTFTILSLQPEDIATYYCQQYDSLLTFGPGTKVDIKR	60	2.02	0.00027	134000	43	57	2.45	0.000266	109000	43	52	15.4	0.000956	61900	12	145	0.000471	25	109	0.00197	t1/2 [5]: 6 min
H4H12908P (antibody, human IgG4 S228P, kappa, V domains shown, anti-IL2Rγ monoclonal antibody expressed with human IgG4 Fc) VH: EVQLVESGGRLVQPGGSLRLSCEASGFTFSNYGMTWVRQAPGKGLEWVSVISGSDNRKYYAESVKGRFTISRDNSKNTLYLQMNSLRAEDTAVYYCAKLGYSRSSKDFYYGMDVWGQGTTVTVSS VL: not shown	19	8.61	0.000285	33100	41	14	7.37	0.000237	32200	49	16	29.2	0.00141	48300	8	55	0.000514	22	52	0.00131	t1/2 [5]: 9 min
H4H12899P (antibody, human IgG4 S228P, kappa, V domains shown, anti-IL2Rγ monoclonal antibody expressed with human IgG4 Fc) VH: QVQLVESGGDLVKPGGSLRLSCATSGFTFSDFYMTWIRQAPGKGLEWISYISNSGSIVKYADSVKGRFTISRDNAKNSLYLQMNSLRAEDTAIYYCARFYGDRWGQGTLVTVSS VL: DIQLTQSPSFLSASVGDRVTITCWASQGISTFLAWYQQKPGKAPKLLIYAASTLQSGVPSRFSGSGSGTDFTLTISSLQPEDFATYHCQQLNNYPWTFGQGTKVEIKR	61	2.51	0.000458	182000	25	54	4.01	0.000407	102000	28	36	7.27	0.00249	342000	5	160	0.000552	21	122	0.00211	t1/2 [5]: 5 min
H4H12900P (antibody, human IgG4 S228P, kappa, V domains shown, anti-IL2Rγ monoclonal antibody expressed with human IgG4 Fc) VH: QVQLVESGGGLVKPGGSLRLSCEASGFTFNDFYMTWIRQAPGKGLEWIAYISKSGDKMRYADSVKGRFSTSRDNAKNSLSLQMNSLRAEDTAVYYCARFYGDIWGQGTLVTVSS VL: DIQLTQSPSFLSASVGDRVTITCWASQDISSFLVWYQQKPGKAPNLLIYAASALQSGVPSRFSGSGSGTEFTLTISSLQPEDFASYYCEQLNNYPWTFGQGTKVEIKR	79	1.29	0.000379	293000	30	71	1.44	0.000335	232000	34	43	3.66	0.00184	503000	6	166	0.000623	19	130	0.00277	t1/2 [5]: 4 min
H4H12884P (antibody, human IgG4 S228P, kappa, V domains shown, anti-IL2Rγ monoclonal antibody expressed with human IgG4 Fc) VH: QVQLQESGPGLVKPSQTLSLTCTVSGGSISSGGYYWSWIRQHPGKGLEWIGFIYYSGKTYYNPSLKSRLTISVDTSKSQFSLKLRSVTAADTAVYYCARLGYTNSAGWFDPWGQGTLVTVSS VL: DIQMTQSPSSLSASVGDRVTITCRASQSISSYLNWYQQKPGKAPNLLIYAASSLQSGVPSRFSGSGSGTDFTLTISSLQPEDLATYYCQQSYTTPFTFGPGTKVDIKR	84	6.96	0.00139	199000	8	82	6.98	0.00121	174000	10	62	13.1	0.00336	257000	3.4	171	0.00147	8	135	0.00335	t1/2 [5]: 3.4 min
H4H12890P (antibody, human IgG4 S228P, kappa, V domains shown, anti-IL2Rγ monoclonal antibody expressed with human IgG4 Fc) VH: EVQLVESGGGLVQPGGSLRLSCAASGFTFNNYAMHWVRQAPGKGLEYVSSISSSGGSTYYEDSVKGRFTISRDNSKNTLYLQMGSLRAEDMAVYYCARSFYGSGTYYDTFDMWGQGTMVTVSS VL: DIQMTQSPSSLSASIGDRVTITCRASQSISRYLNWYQQKPGKAPKLLIYAASSLQSGVPSRFSASGSGTDFTLTISSLQPEDFATYYCQQSYSTPFTFGQGTKLEIKR	48	4.91	0.000333	67900	35	37	5.16	0.000313	60600	37	27	14	0.00133	95100	9	82	0.000624	19	71	0.00276	t1/2 [5]: 4 min
H4H12889P (antibody, human IgG4 S228P, kappa, V domains shown, anti-IL2Rγ monoclonal antibody expressed with human IgG4 Fc; also called REGN7257) VH: EVQLVESGGGLVQPGGSLRLSCAASGFIFSSYEMHWVRQAPGKGLEWISYISSSGTTIYYADSVKGRFTISRDNAKNSLYLHMNSLRAEDTAVYYCTRARITGTFDVFDIWGQGTMVTVSS VL: DIQMTQSPSSLSASVGDRVTITCRASQSISSYLNWYQQKPGKAPKLLIFAASNLQSGVPSRFSGSRSGTDFTLTISSLQPEDFATYYCQQNYNIPYTFGQGTKLEIKR	64	1.41	0.00042	298000	28	59	1.74	0.000404	233000	29	32	3.99	0.00185	465000	6	147	0.000578	20	148	0.00183	t1/2 [5]: 6 min
